Laboratory results from US20210324028A1 (Pfizer, published 2021).
Where a chain is given by its changes, count along the chain named. Names and notes keep the numbering of the source.

Experiments:
[1] = target: T1, human IL-15Rα (human, UniProt Q13261 31-205, limits assumed); assay: SPR, steady state
T1 construct: also called hIL-15Rα; IL-15 receptor alpha

[2] = target: T2, human IL-2Rβ (human, UniProt P14784 27-240, limits assumed); assay: SPR 37C
T2 construct: also called hIL-2Rβ; IL-2 receptor beta
T2 sequence (looked up): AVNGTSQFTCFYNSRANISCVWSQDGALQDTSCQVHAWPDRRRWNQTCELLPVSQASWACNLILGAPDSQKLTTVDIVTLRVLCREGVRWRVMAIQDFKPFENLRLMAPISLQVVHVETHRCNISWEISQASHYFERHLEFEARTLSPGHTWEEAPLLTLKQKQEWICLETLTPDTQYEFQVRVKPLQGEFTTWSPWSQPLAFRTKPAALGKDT

[3] = target: T2, human IL-2Rβ; assay: SPR, steady state

T1 sequence (Q13261 31-205 limits assumed): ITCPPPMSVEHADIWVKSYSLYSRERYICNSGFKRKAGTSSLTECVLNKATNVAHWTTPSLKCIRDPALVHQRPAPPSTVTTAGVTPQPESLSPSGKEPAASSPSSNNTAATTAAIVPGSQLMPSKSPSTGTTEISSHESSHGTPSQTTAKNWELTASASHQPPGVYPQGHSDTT

B1: hIL-15 V49R/D8A (ligand)
chain: NWVNVISALKKIEDLIQSMHIDATLYTESDVHPSCKVTAMKCFLLELQRISLESGDASIHDTVENLIILANNSLSSNGNVTESGCKECEELEEKNIKEFLQSFVHIVQMFINTGGGGSGHHHHHHHHGGGLNDIFEAQKIEWHE
Question: Which results are given for B1?
Answer: Kd [1]: 102 nM; binding result [2]: no binding

B2: hIL-15 V49R/S7T (ligand)
chain: B1 chain with S7T, A8D
Question: How did the Kd [3] turn out when B2 was run?
Answer: > 500 nM

Question: What about the Kd [1] of the same binder?
Answer: 93.9 nM

B3: hIL-15 V49R/S7Q (ligand)
chain: B1 chain with S7Q, A8D
Question: How did the Kd [3] turn out when B3 was run?
Answer: 215 nM

Question: What about the Kd [1] of the same binder?
Answer: 88.1 nM

B4: hIL-15 V49R/S7N (ligand)
chain: B1 chain with S7N, A8D
Question: What does the source list for B4?
Answer: Kd [3]: > 500 nM; Kd [1]: 93.2 nM

B5: hIL-15 V49R/S29A (ligand)
chain: B1 chain with A8D, S29A
Question: What does the source list for B5?
Answer: Kd [3]: 274 nM; Kd [1]: 154 nM

B6: hIL-15 V49R/D61S (ligand)
chain: B1 chain with A8D, D61S
Question: What does the source list for B6?
Answer: Kd [1]: 102 nM; binding result [2]: no binding

B7: hIL-15 V49R/S29N (ligand)
chain: B1 chain with A8D, S29N
Question: With B7 as the binder, how does the Kd [3] read?
Answer: 322 nM

Question: And the Kd [1]?
Answer: 154 nM

B8: hIL-15 V49R/S29D (ligand)
chain: B1 chain with A8D, S29D
Question: For B8, which Kd [3] is on record?
Answer: 238 nM

Question: And the Kd [1]?
Answer: 121 nM

B9: hIL-15 V49R/S7D (ligand)
chain: B1 chain with S7D, A8D
Question: What does the source list for B9?
Answer: Kd [3]: > 500 nM; Kd [1]: 121 nM

B10: hIL-15 V49R/E64K (ligand)
chain: B1 chain with A8D, E64K
Question: For B10, which Kd [1] is on record?
Answer: 164 nM

Question: Does B10 bind [2]?
Answer: no binding

B11: hIL-15 V49R/K10P (ligand)
chain: B1 chain with A8D, K10P
Question: Does B11 bind [2]?
Answer: no binding

B12: hIL-15 V49R/D61K (ligand)
chain: B1 chain with A8D, D61K
Question: Which results are given for B12?
Answer: Kd [1]: 116 nM; binding result [2]: no binding

B13: hIL-15 V49R/S7A (ligand)
chain: B1 chain with S7A, A8D
Question: Which Kd [3] does the source give for B13 here?
Answer: 220 nM

Question: And the Kd [1]?
Answer: 84 nM

B14: hIL-15 V49R/V31S (ligand)
chain: B1 chain with A8D, V31S
Question: With B14 as the binder, how does the Kd [3] read?
Answer: > 500 nM

Question: And the Kd [1]?
Answer: 265 nM

B15: hIL-15 V49R/D8S (ligand)
chain: B1 chain with A8S
Question: For B15, which Kd [1] is on record?
Answer: 124 nM

Question: Does B15 bind [2]?
Answer: no binding

B16: hIL-15 V49R/S7E (ligand)
chain: B1 chain with S7E, A8D
Question: Which results are given for B16?
Answer: Kd [3]: > 500 nM; Kd [1]: 87.6 nM

B17: hIL-15 V49R/S29K (ligand)
chain: B1 chain with A8D, S29K
Question: With B17 as the binder, how does the Kd [3] read?
Answer: 248 nM

Question: What about the Kd [1] of the same binder?
Answer: 261 nM

B18: hIL-15 V49R/N4S (ligand)
chain: B1 chain with N4S, A8D
Question: For B18, which Kd [1] is on record?
Answer: 94.7 nM

Question: Does B18 bind [2]?
Answer: no binding

B19: hIL-15 V49R/N4K (ligand)
chain: B1 chain with N4K, A8D
Question: Which Kd [1] does the source give for B19 here?
Answer: 73.1 nM

Question: Does B19 bind [2]?
Answer: no binding

B20: hIL-15 V49R/D8K (ligand)
chain: B1 chain with A8K
Question: B20 was tested. Which Kd [1] did it give?
Answer: 101 nM

Question: Does B20 bind [2]?
Answer: no binding

B21: hIL-15 V49R/N4I (ligand)
chain: B1 chain with N4I, A8D
Question: Does B21 bind [2]?
Answer: no binding

B22: hIL-15 V49R/S7H (ligand)
chain: B1 chain with S7H, A8D
Question: B22 was tested. Which Kd [3] did it give?
Answer: 354 nM

Question: And the Kd [1]?
Answer: 75.6 nM

B23: hIL-15 V49R/S7K (ligand)
chain: B1 chain with S7K, A8D
Question: For B23, which Kd [3] is on record?
Answer: > 500 nM

Question: And the Kd [1]?
Answer: 103 nM

B24: hIL-15 V49R/K11P (ligand)
chain: B1 chain with A8D, K11P
Question: Does B24 bind [2]?
Answer: no binding

B25: hIL-15 V49R/V31D (ligand)
chain: B1 chain with A8D, V31D
Question: What does the source list for B25?
Answer: Kd [3]: > 500 nM; Kd [1]: > 500 nM

B26: hIL-15 V49R/D8N (ligand)
chain: B1 chain with A8N
Question: B26 was tested. Which Kd [1] did it give?
Answer: 119 nM

Question: Does B26 bind [2]?
Answer: no binding

B27: hIL-15 V49R/I68K (ligand)
chain: B1 chain with A8D, I68K
Question: How did the Kd [1] turn out when B27 was run?
Answer: 94.2 nM

Question: Does B27 bind [2]?
Answer: no binding

B28: hIL-15 V49R/I68S (ligand)
chain: B1 chain with A8D, I68S
Question: With B28 as the binder, how does the Kd [1] read?
Answer: 104 nM

Question: Does B28 bind [2]?
Answer: no binding

B29: hIL-15 V49R/D61N (ligand)
chain: B1 chain with A8D, D61N
Question: B29 was tested. Which Kd [1] did it give?
Answer: 121 nM

Question: Does B29 bind [2]?
Answer: no binding

B30: hIL-15 V49R/S7G (ligand)
chain: B1 chain with S7G, A8D
Question: Which results are given for B30?
Answer: Kd [3]: > 500 nM; Kd [1]: 147 nM

B31: hIL-15 V49R/N65S (ligand)
chain: B1 chain with A8D, N65S
Question: What does the source list for B31?
Answer: Kd [1]: 158 nM; binding result [2]: no binding

B32: hIL-15 V49R/I68D (ligand)
chain: B1 chain with A8D, I68D
Question: How did the Kd [1] turn out when B32 was run?
Answer: 106 nM

Question: Does B32 bind [2]?
Answer: no binding

B33: hIL-15 V49R/N65A (ligand)
chain: B1 chain with A8D, N65A
Question: How did the Kd [1] turn out when B33 was run?
Answer: 202 nM

Question: Does B33 bind [2]?
Answer: no binding

B34: hIL-15 V49R/V31A (ligand)
chain: B1 chain with A8D, V31A
Question: With B34 as the binder, how does the Kd [3] read?
Answer: 269 nM

Question: And the Kd [1]?
Answer: 129 nM

B35: hIL-15 V49R/S7R (ligand)
chain: B1 chain with S7R, A8D
Question: With B35 as the binder, how does the Kd [3] read?
Answer: > 500 nM

Question: And the Kd [1]?
Answer: 77 nM
